Where two headings read alike, the source gives them in different places.
How the values were obtained:
[1] = water/1-octanol partition coefficients (logD) of 68Ga-labeled compounds, γ-counting; assay type: physicochemical; conditions: pH 7.4
Experimental: The mixtures were vigorously shaken for 5 min on a vibrating plate. After subsequent centrifugation at 13,000 rpm for 5 min, 125 µL was taken from each phase and measured in a γ-counter. The logD values were calculated from three or four independent experiments, each performed in triplicate. For 18, the logD was determined by semipreparative HPLC. For this purpose, a solution of 18 (10 µL, c = 5 × 10^−4 mol/L) in water was added to a mixture of 1 mL 1-octanol and 990 µL phosphate buffered solution (0.05 M, pH 7.4) and vigorously shaken for 5 min. After centrifugation, the phases were separated and both phases were analyzed by semipreparative HPLC and the peaks of the UV signals at 214 nm were integrated. The logD was determined by three separate measurements, each experiment performed in triplicate.

[2] = photophysical properties (absorbance and emission measurements); assay type: physicochemical; conditions: for λmax(em): excitation wavelength λex = 650 nm
Experimental: Finally, the photophysical properties were determined for dyes, MIS and their conjugates. It could be shown that the photophysical properties remained largely unaltered, including absorption coefficients and emission characteristics (Table 1). […] The only change in photophysical properties we qualitatively observed was an increase in the quantum yields of the dye conjugates compared to their unconjugated leads 1–3, an effect that was described before and can be attributed to the conjugation of sterically demanding groups (such as the PESIN homodimers used here), resulting in a decrease in aggregation of the dye molecules and thus a reduced fluorescence quenching. γ-Counting was performed using a 2480 Wizard gamma counter system from Perkin Elmer. A Cary 100 Bio system (Varian) was used to record the UV/Vis-Spectra together with 4 mL PMMA cuvettes from Sigma-Aldrich. Furthermore, for absorbance and emission measurements, a Tecan Infinite M200 Microplate reader together with a Nunc Micro-Well 96 solid plate from ThermoFisher was used.

`CC1(C)C(/C=C/C2=C(c3ccc(C(=O)NCCCC[C@H](NC(=O)CC[C@H](C(=O)O)N4CCN(CC(=O)O)CCN(CC(=O)O)CC4)C(=O)N[C@@H](CS)C(N)=O)cc3)C(=C/C=C3/N(CCCCS(=O)(=O)[O-])c4ccc5ccccc5c4C3(C)C)/CCC2)=[N+](CCCCS(=O)(=O)O)c2ccc3ccccc3c21` (single isomer, unassigned) [[68Ga]Ga-10, metal not drawn] gave a logD [1] of -1.29 ± 0.11.

Molecule `CC1(C)C(=CC=C2CCCC(C=CC3=[N+](CCCCS(=O)(=O)[O-])c4ccc(C(=O)NCCCC[C@H](NC(=O)CC[C@H](C(=O)O)N5CCN(CC(=O)O)CCN(CC(=O)O)CC5)C(=O)N[C@@H](CS)C(N)=O)cc4C3(C)C)=C2c2ccccc2)N(CCCCS(=O)(=O)O)c2ccc(S(=O)(=O)O)cc21` (single isomer, unassigned) [[68Ga]Ga-11, metal not drawn] has a logD [1] of -3.05 ± 0.08.

Molecule `CC1(C)C(=CC=C2CCCC(C=CC3=[N+](CCCCS(=O)(=O)[O-])c4ccc(S(=O)(=O)O)cc4C3(C)C)=C2c2ccc(CCC(=O)NCCCC[C@H](NC(=O)CC[C@H](C(=O)O)N3CCN(CC(=O)O)CCN(CC(=O)O)CC3)C(=O)N[C@@H](CS)C(N)=O)cc2)N(CCCCS(=O)(=O)O)c2ccc(S(=O)(=O)O)cc21` (single isomer, unassigned) [[68Ga]Ga-12, metal not drawn] has a logD [1] of -3.47 ± 0.17.

With `CC1(C)C(/C=C/C2=C(c3ccc(C(=O)NCCCC[C@H](NC(=O)CC[C@H](C(=O)O)N4CCN(CC(=O)O)CCN(CC(=O)O)CC4)C(=O)N[C@@H](CS)C(N)=O)cc3)C(=C/C=C3/N(CCCCS(=O)(=O)[O-])c4ccc5ccccc5c4C3(C)C)/CCC2)=[N+](CCCCS(=O)(=O)O)c2ccc3ccccc3c21` [Compound 10] the logD [1] was −1.29 ± 0.11.

With `CC1(C)C(=CC=C2CCCC(C=CC3=[N+](CCCCS(=O)(=O)[O-])c4ccc(C(=O)NCCCC[C@H](NC(=O)CC[C@H](C(=O)O)N5CCN(CC(=O)O)CCN(CC(=O)O)CC5)C(=O)N[C@@H](CS)C(N)=O)cc4C3(C)C)=C2c2ccccc2)N(CCCCS(=O)(=O)O)c2ccc(S(=O)(=O)O)cc21` [Compound 11] the logD [1] was −3.05 ± 0.08.

`CC1(C)C(=CC=C2CCCC(C=CC3=[N+](CCCCS(=O)(=O)[O-])c4ccc(S(=O)(=O)O)cc4C3(C)C)=C2c2ccc(CCC(=O)NCCCC[C@H](NC(=O)CC[C@H](C(=O)O)N3CCN(CC(=O)O)CCN(CC(=O)O)CC3)C(=O)N[C@@H](CS)C(N)=O)cc2)N(CCCCS(=O)(=O)O)c2ccc(S(=O)(=O)O)cc21` [Compound 12] gave a logD [1] of −3.47 ± 0.17.

For `CSCC[C@H](NC(=O)[C@H](CC(C)C)NC(=O)[C@H](Cc1c[nH]cn1)NC(=O)CNC(=O)[C@@H](NC(=O)[C@H](C)NC(=O)[C@H](Cc1c[nH]c2ccccc12)NC(=O)[C@H](CCC(N)=O)NC(=O)CCOCCOCCOCCOCCNC(=O)CON=Cc1ccc(C(=O)NCCCN(CCCNC(=O)c2ccc(C=NOCC(=O)NCCOCCOCCOCCOCCC(=O)N[C@@H](CCC(N)=O)C(=O)N[C@@H](Cc3c[nH]c4ccccc34)C(=O)N[C@@H](C)C(=O)N[C@H](C(=O)NCC(=O)N[C@@H](Cc3c[nH]cn3)C(=O)N[C@@H](CC(C)C)C(=O)N[C@@H](CCSC)C(N)=O)C(C)C)cc2)CC(=O)N[C@H](CSC2CC(=O)N(CCN3C(=O)CC(SC[C@H](NC(=O)[C@H](CCCCNC(=O)c4ccc(C5=C(C=CC6=[N+](CCCCS(=O)(=O)[O-])c7ccc8ccccc8c7C6(C)C)CCCC5=CC=C5N(CCCCS(=O)(=O)O)c6ccc7ccccc7c6C5(C)C)cc4)NC(=O)CC[C@H](C(=O)O)N4CCN(CC(=O)O)CCN(CC(=O)O)CC4)C(N)=O)C3=O)C2=O)C(=O)NCCOCCOCC(N)=O)cc1)C(C)C)C(N)=O` (stereo partly drawn) [Compound 14], the “Stokes Shift” value [2] was 10 nm, the “λmax(abs)” value [2] was 735/810 and the “λmax(em)” value [2] was 820 nm.

With `CSCC[C@H](NC(=O)[C@H](CC(C)C)NC(=O)[C@H](Cc1c[nH]cn1)NC(=O)CNC(=O)[C@@H](NC(=O)[C@H](C)NC(=O)[C@H](Cc1c[nH]c2ccccc12)NC(=O)[C@H](CCC(N)=O)NC(=O)CCOCCOCCOCCOCCNC(=O)CON=Cc1ccc(C(=O)NCCCN(CCCNC(=O)c2ccc(C=NOCC(=O)NCCOCCOCCOCCOCCC(=O)N[C@@H](CCC(N)=O)C(=O)N[C@@H](Cc3c[nH]c4ccccc34)C(=O)N[C@@H](C)C(=O)N[C@H](C(=O)NCC(=O)N[C@@H](Cc3c[nH]cn3)C(=O)N[C@@H](CC(C)C)C(=O)N[C@@H](CCSC)C(N)=O)C(C)C)cc2)CC(=O)N[C@H](CSC2CC(=O)N(CCN3C(=O)CC(SC[C@H](NC(=O)[C@H](CCCCNC(=O)c4ccc5c(c4)C(C)(C)C(C=CC4=C(c6ccccc6)C(=CC=C6N(CCCCS(=O)(=O)O)c7ccc(S(=O)(=O)O)cc7C6(C)C)CCC4)=[N+]5CCCCS(=O)(=O)[O-])NC(=O)CC[C@H](C(=O)O)N4CCN(CC(=O)O)CCN(CC(=O)O)CC4)C(N)=O)C3=O)C2=O)C(=O)NCCOCCOCC(N)=O)cc1)C(C)C)C(N)=O` (stereo partly drawn) [Compound 15] the “Stokes Shift” value [2] was 30 nm, the “λmax(abs)” value [2] was 705/770 and the “λmax(em)” value [2] was 800 nm.

For `CSCC[C@H](NC(=O)[C@H](CC(C)C)NC(=O)[C@H](Cc1c[nH]cn1)NC(=O)CNC(=O)[C@@H](NC(=O)[C@H](C)NC(=O)[C@H](Cc1c[nH]c2ccccc12)NC(=O)[C@H](CCC(N)=O)NC(=O)CCOCCOCCOCCOCCNC(=O)CON=Cc1ccc(C(=O)NCCCN(CCCNC(=O)c2ccc(C=NOCC(=O)NCCOCCOCCOCCOCCC(=O)N[C@@H](CCC(N)=O)C(=O)N[C@@H](Cc3c[nH]c4ccccc34)C(=O)N[C@@H](C)C(=O)N[C@H](C(=O)NCC(=O)N[C@@H](Cc3c[nH]cn3)C(=O)N[C@@H](CC(C)C)C(=O)N[C@@H](CCSC)C(N)=O)C(C)C)cc2)CC(=O)N[C@H](CSC2CC(=O)N(CCN3C(=O)CC(SC[C@H](NC(=O)[C@H](CCCCNC(=O)CCc4ccc(C5=C(C=CC6=[N+](CCCCS(=O)(=O)[O-])c7ccc(S(=O)(=O)O)cc7C6(C)C)CCCC5=CC=C5N(CCCCS(=O)(=O)O)c6ccc(S(=O)(=O)O)cc6C5(C)C)cc4)NC(=O)CC[C@H](C(=O)O)N4CCN(CC(=O)O)CCN(CC(=O)O)CC4)C(N)=O)C3=O)C2=O)C(=O)NCCOCCOCC(N)=O)cc1)C(C)C)C(N)=O` (stereo partly drawn) [Compound 16], the “Stokes Shift” value [2] was 20 nm, the “λmax(abs)” value [2] was 700/770 and the “λmax(em)” value [2] was 790 nm.

In the case of `NC(=O)C(CS)NC(=O)CNC(=O)CCC(C(=O)O)N1CCN(CC(=O)O)CCN(CC(=O)O)CC1` (stereo not drawn) [Compound 19, NH2-Cys-Gly-NODA-GA], the logD ([1]; 68Ga-labeled compound, 1-octanol / phosphate buffer 0.05 M, read-out: logD) is reported as -3.35 ± 0.15.

`CSCC[C@H](NC(=O)[C@H](CC(C)C)NC(=O)[C@H](Cc1c[nH]cn1)NC(=O)CNC(=O)[C@@H](NC(=O)[C@H](C)NC(=O)[C@H](Cc1c[nH]c2ccccc12)NC(=O)[C@H](CCC(N)=O)NC(=O)CCOCCOCCOCCOCCNC(=O)CON=Cc1ccc(C(=O)NCCCN(CCCNC(=O)c2ccc(C=NOCC(=O)NCCOCCOCCOCCOCCC(=O)N[C@@H](CCC(N)=O)C(=O)N[C@@H](Cc3c[nH]c4ccccc34)C(=O)N[C@@H](C)C(=O)N[C@H](C(=O)NCC(=O)N[C@@H](Cc3c[nH]cn3)C(=O)N[C@@H](CC(C)C)C(=O)N[C@@H](CCSC)C(N)=O)C(C)C)cc2)CC(=O)N[C@H](CSC2CC(=O)N(CCN3C(=O)CC(SC[C@H](NC(=O)[C@H](CCCCNC(=O)c4ccc(C5=C(C=CC6=[N+](CCCCS(=O)(=O)[O-])c7ccc8ccccc8c7C6(C)C)CCCC5=CC=C5N(CCCCS(=O)(=O)O)c6ccc7ccccc7c6C5(C)C)cc4)NC(=O)CC[C@H](C(=O)O)N4CCN(CC(=O)O)CCN(CC(=O)O)CC4)C(N)=O)C3=O)C2=O)C(=O)NCCOCCOCC(N)=O)cc1)C(C)C)C(N)=O` (stereo partly drawn) [[68Ga]Ga-14, metal not drawn] gave a logD [1] of -1.33 ± 0.04.

With `CSCC[C@H](NC(=O)[C@H](CC(C)C)NC(=O)[C@H](Cc1c[nH]cn1)NC(=O)CNC(=O)[C@@H](NC(=O)[C@H](C)NC(=O)[C@H](Cc1c[nH]c2ccccc12)NC(=O)[C@H](CCC(N)=O)NC(=O)CCOCCOCCOCCOCCNC(=O)CON=Cc1ccc(C(=O)NCCCN(CCCNC(=O)c2ccc(C=NOCC(=O)NCCOCCOCCOCCOCCC(=O)N[C@@H](CCC(N)=O)C(=O)N[C@@H](Cc3c[nH]c4ccccc34)C(=O)N[C@@H](C)C(=O)N[C@H](C(=O)NCC(=O)N[C@@H](Cc3c[nH]cn3)C(=O)N[C@@H](CC(C)C)C(=O)N[C@@H](CCSC)C(N)=O)C(C)C)cc2)CC(=O)N[C@H](CSC2CC(=O)N(CCN3C(=O)CC(SC[C@H](NC(=O)[C@H](CCCCNC(=O)c4ccc5c(c4)C(C)(C)C(C=CC4=C(c6ccccc6)C(=CC=C6N(CCCCS(=O)(=O)O)c7ccc(S(=O)(=O)O)cc7C6(C)C)CCC4)=[N+]5CCCCS(=O)(=O)[O-])NC(=O)CC[C@H](C(=O)O)N4CCN(CC(=O)O)CCN(CC(=O)O)CC4)C(N)=O)C3=O)C2=O)C(=O)NCCOCCOCC(N)=O)cc1)C(C)C)C(N)=O` (stereo partly drawn) [[68Ga]Ga-15, metal not drawn] the logD [1] was -2.48 ± 0.14.

Reference: PMC7558102, “Hybrid Multimodal Imaging Synthons for Chemoselective and Efficient Biomolecule Modification with Chelator and Near-Infrared Fluorescent Cyanine Dye” (Pharmaceuticals, 2020)
